Assay results taken from the RNAGym collection of RNA variant scans (doi:10.1093/nar/gkz1192).

B1: CPEB3 Ribozyme (parent)
chain: UAACAGGGGGCCACAGCAGAAGCGUUCACGUCGCAGCCCCUGUCAGAUUCUGGUGAAUCUGCGAAUUCUGCUGUAUAUCUC

Variants of: B1
Experiment: self-cleavage, relative activity (ratio to wild type); higher = more cleavage; in vitro, sequencing
Method in brief: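 For each CPEB3 ribozyme variant, relative activity is its cleaved/total read fraction divided by the unmutated ribozyme's. Barcoded error-prone PCR libraries were transcribed by T7 RNA polymerase (5 hours, 37°C) and held in DNase I for 15 min before an EDTA stop, with cleavage occurring throughout. Template-switching reverse transcription and Illumina sequencing were used to read the RNAs. A 5-read minimum applied, and results are the mean of three batches.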

Variant	self-cleavage
UAACAGGGGGCCACAGCAGAAGCGUUCACGUCGCAGCCCCUGUCAGAUUCUAGUGAAGCUGCGAAUUCUGCUGUAUAUCUC [G52A U58G]	0.34
UAACAGGGGGCCACAGCAGAAGCGUUCACGUCGCAGCCCCUGUCAGAUUCUAGUGAACCUGCGAAUUCUGCUGUAUAUCUC [G52A U58C]	0.68
UAACAGGGGGCCACAGCAGAAGCGUUCACGUCGCAGCCCCUGUCAGAUUCUAGUGAAACUGCGAAUUCUGCUGUAUAUCUC [G52A U58A]	0.5
UAACAGGGGGCCACAGCAGAAGCGUUCACGUCGCAGCCCCUGUCAGAUUCUCGUGAAUCUCCGAAUUCUGCUGUAUAUCUC [G52C G61C]	0.34
UAACAGGGGGCCACAGCAGAAGCGUUCACGUCGCAGCCCCUGUCAGAUUCUCGUGAAUCUGCGAUUUCUGCUGUAUAUCUC [G52C A65U]	0.32
UAACAGGGGGCCACAGCAGAAGCGUUCACGUCGCAGCCCCUGUCAGAUUCUCGUGAAUCUGCGAGUUCUGCUGUAUAUCUC [G52C A65G]	0.49
UAACAGGGGGCCACAGCAGAAGCGUUCACGUCGCAGCCCCUGUCAGAUUCUCGUGAAUCUGCGAAUCCUGCUGUAUAUCUC [G52C U67C]	0.57
UAACAGGGGGCCACAGCAGAAGCGUUCACGUCGCAGCCCCUGUCAGAUUCUCGUGAAUCUGCGAAUACUGCUGUAUAUCUC [G52C U67A]	0.88
UAACAGGGGGCCACAGCAGAAGCGUUCACGUCGCAGCCCCUGUCAGAUUCUCGUGAAUCUGCGAAUUCUGCUGUAUAUCUC [G52C]	1.05
UAACAGGGGGCCACAGCAGAAGCGUUCACGUCGCAGCCCCUGUCAGAUUCUAGUGAAUCUGCGAAUUCUGCUGUAUAUCUC [G52A]	1.14
UAACAGGGGGCCACAGCAGAAGCGUUCACGUCGCAGCCCCUGUCAGAUUCUCGUGGAUCUGCGAAUUCUGCUGUAUAUCUC [G52C A56G]	1.12
UAACAGGGGGCCACAGCAGAAGCGUUCACGUCGCAGCCCCUGUCAGAUUCUAGUGAAUCUGCGGAUUCUGCUGUAUAUCUC [G52A A64G]	1.03
UAACAGGGGGCCACAGCAGAAGCGUUCACGUCGCAGCCCCUGUCAGAUUCUAGUGAAUCUGCGAAUUCUGCUGUAUACCUC [G52A U78C]	1.13
UAACAGGGGGCCACAGCAGAAGCGUUCACGUCGCAGCCCCUGUCAGAUUCUAGUGAAUCUGCGAAUUCUGCUGUAUAACUC [G52A U78A]	1.19
UAACAGGGGGCCACAGCAGAAGCGUUCACGUCGCAGCCCCUGUCAGAUUCUAGUGAAUCUGCGAAUUCUGCUGUAUAUCAC [G52A U80A]	1.15
UAACAGGGGGCCACAGCAGAAGCGUUCACGUCGCAGCCCCUGUCAGAUUCUAGUGAAUCUGCGAAUUCUGCUGUAUAUCCC [G52A U80C]	1.18
UAACAGGGGGCCACAGCAGAAGCGUUCACGUCGCAGCCCCUGUCAGAUUCUAGUGAAUCUGCGAAUUCUGCUGUGUAUCUC [G52A A75G]	0.99
UAACAGGGGGCCACAGCAGAAGCGUUCACGUCGCAGCCCCUGUCAGAUUCGGGUGAAUCUGCGAAUUCUGCAGUAUAUCUC [U51G U72A]	0.91
UAACAGGGGGCCACAGCAGAAGCGUUCACGUCGCAGCCCCUGUCAGAUUCGGGUGAAUCUGCGAAUUCUGCCGUAUAUCUC [U51G U72C]	0.95
UAACAGGGGGCCACAGCAGAAGCGUUCACGUCGCAGCCCCUGUCAGAUUCGGGUGAAUCUGCGAAUUCUGCGGUAUAUCUC [U51G U72G]	0.57
UAACAGGGGGCCACAGCAGAAGCGUUCACGUCGCAGCCCCUGUCAGAUUCGGGUGAAUCAGCGAAUUCUGCUGUAUAUCUC [U51G U60A]	0.78
UAACAGGGGGCCACAGCAGAAGCGUUCACGUCGCAGCCCCUGUCAGAUUCGGGUGAAUCCGCGAAUUCUGCUGUAUAUCUC [U51G U60C]	0.39
UAACAGGGGGCCACAGCAGAAGCGUUCACGUCGCAGCCCCUGUCAGAUUCUCGUGAAUCUGCGAAUUCUGCUGUAUCUCUC [G52C A77C]	1.11

Variant	self-cleavage
UAACAGGGGGCCACAGCAGAAGCGUUCACGUCGCAGCCCCUGUCAGAUUCUCGUGAAUCUGCGAAUUCUGCUGUAUGUCUC [G52C A77G]	1.16
UAACAGGGGGCCACAGCAGAAGCGUUCACGUCGCAGCCCCUGUCAGAUUCGGGUGAAUCUGCGAAUUCUGCUGAAUAUCUC [U51G U74A]	1.14
UAACAGGGGGCCACAGCAGAAGCGUUCACGUCGCAGCCCCUGUCAGAUUCGGGUGAAUCUGCGAAUUCUGCUGUAUAUCAC [U51G U80A]	1
UAACAGGGGGCCACAGCAGAAGCGUUCACGUCGCAGCCCCUGUCAGAUUCGGGUGAAUCUGCGAAUUCUGCUGUAUAUCCC [U51G U80C]	1.11
UAACAGGGGGCCACAGCAGAAGCGUUCACGUCGCAGCCCCUGUCAGAUUCGGGAGAAUCUGCGAAUUCUGCUGUAUAUCUC [U51G U54A]	1.28
UAACAGGGGGCCACAGCAGAAGCGUUCACGUCGCAGCCCCUGUCAGAUUCGGGGGAAUCUGCGAAUUCUGCUGUAUAUCUC [U51G U54G]	0.24
UAACAGGGGGCCACAGCAGAAGCGUUCACGUCGCAGCCCCUGUCAGAUUCGGGCGAAUCUGCGAAUUCUGCUGUAUAUCUC [U51G U54C]	1.06
UAACAGGGGGCCACAGCAGAAGCGUUCACGUCGCAGCCCCUGUCAGAUUCUAGUGUAUCUGCGAAUUCUGCUGUAUAUCUC [G52A A56U]	1.14
UAACAGGGGGCCACAGCAGAAGCGUUCACGUCGCAGCCCCUGUCAGAUUCUAGUGGAUCUGCGAAUUCUGCUGUAUAUCUC [G52A A56G]	1.19
UAACAGGGGGCCACAGCAGAAGCGUUCACGUCGCAGCCCCUGUCAGAUUCUCGUGAAUCUGCGAAUUUUGCUGUAUAUCUC [G52C C68U]	1.18
UAACAGGGGGCCACAGCAGAAGCGUUCACGUCGCAGCCCCUGUCAGAUUCUAGUGAGUCUGCGAAUUCUGCUGUAUAUCUC [G52A A57G]	0.99
UAACAGGGGGCCACAGCAGAAGCGUUCACGUCGCAGCCCCUGUCAGAUUCUAGUGAAUCGGCGAAUUCUGCUGUAUAUCUC [G52A U60G]	0.44
UAACAGGGGGCCACAGCAGAAGCGUUCACGUCGCAGCCCCUGUCAGAUUCUAGUGAAUCAGCGAAUUCUGCUGUAUAUCUC [G52A U60A]	0.4
UAACAGGGGGCCACAGCAGAAGCGUUCACGUCGCAGCCCCUGUCAGAUUCUAGUGAAUCCGCGAAUUCUGCUGUAUAUCUC [G52A U60C]	0.78
UAACAGGGGGCCACAGCAGAAGCGUUCACGUCGCAGCCCCUGUCAGAUUCUAGUGAAUCUGCGAAUUCAGCUGUAUAUCUC [G52A U69A]	0.84
UAACAGGGGGCCACAGCAGAAGCGUUCACGUCGCAGCCCCUGUCAGAUUCUAGUGAAUCUGCGAAUUCCGCUGUAUAUCUC [G52A U69C]	0.62
UAACAGGGGGCCACAGCAGAAGCGUUCACGUCGCAGCCCCUGUCAGAUUCUAGUGAAUCUGCGAAUUCGGCUGUAUAUCUC [G52A U69G]	0.98
UAACAGGGGGCCACAGCAGAAGCGUUCACGUCGCAGCCCCUGUCAGAUUCUAAUGAAUCUGCGAAUUCUGCUGUAUAUCUC [G52A G53A]	1.13
UAACAGGGGGCCACAGCAGAAGCGUUCACGUCGCAGCCCCUGUCAGAUUCGGGUGAAUCUGCGAAUUCUGCUGUACAUCUC [U51G U76C]	1.17
UAACAGGGGGCCACAGCAGAAGCGUUCACGUCGCAGCCCCUGUCAGAUUCGGGUGAAUCUGCGAAUUCUGCUGUAAAUCUC [U51G U76A]	1.19
UAACAGGGGGCCACAGCAGAAGCGUUCACGUCGCAGCCCCUGUCAGAUUCUAGUGAAUCUGCGAAUUCUGCUGUACAUCUC [G52A U76C]	1.06
UAACAGGGGGCCACAGCAGAAGCGUUCACGUCGCAGCCCCUGUCAGAUUCUAGUGAAUCUGCGAAUUCUGCUGUAGAUCUC [G52A U76G]	1.15
UAACAGGGGGCCACAGCAGAAGCGUUCACGUCGCAGCCCCUGUCAGAUUCGGGUGAACCUGCGAAUUCUGCUGUAUAUCUC [U51G U58C]	0.37

Variant	self-cleavage
UAACAGGGGGCCACAGCAGAAGCGUUCACGUCGCAGCCCCUGUCAGAUUCGGGUGAAUCUGCGAAUACUGCUGUAUAUCUC [U51G U67A]	0.43
UAACAGGGGGCCACAGCAGAAGCGUUCACGUCGCAGCCCCUGUCAGAUUCGGGUGAAUCUGCGAAUCCUGCUGUAUAUCUC [U51G U67C]	0.17
UAACAGGGGGCCACAGCAGAAGCGUUCACGUCGCAGCCCCUGUCAGAUUCUAGUGAAUCUGCGAAUACUGCUGUAUAUCUC [G52A U67A]	0.51
UAACAGGGGGCCACAGCAGAAGCGUUCACGUCGCAGCCCCUGUCAGAUUCUAGUGAAUCUGCGAAUUCUGCUGCAUAUCUC [G52A U74C]	1.26
UAACAGGGGGCCACAGCAGAAGCGUUCACGUCGCAGCCCCUGUCAGAUUCUCGAGAAUCUGCGAAUUCUGCUGUAUAUCUC [G52C U54A]	1.14
UAACAGGGGGCCACAGCAGAAGCGUUCACGUCGCAGCCCCUGUCAGAUUCUCGGGAAUCUGCGAAUUCUGCUGUAUAUCUC [G52C U54G]	1.12
UAACAGGGGGCCACAGCAGAAGCGUUCACGUCGCAGCCCCUGUCAGAUUCUAGUGAAUCUGCGAAUUCUGCAGUAUAUCUC [G52A U72A]	1.13
UAACAGGGGGCCACAGCAGAAGCGUUCACGUCGCAGCCCCUGUCAGAUUCUAGUGAAUCUGCGAAUUCUGCCGUAUAUCUC [G52A U72C]	1.21
UAACAGGGGGCCACAGCAGAAGCGUUCACGUCGCAGCCCCUGUCAGAUUCUAGUGAAUCUGCGAAUUCUGCGGUAUAUCUC [G52A U72G]	0.94
UAACAGGGGGCCACAGCAGAAGCGUUCACGUCGCAGCCCCUGUCAGAUUCUAGUGAAUCUGCGAGUUCUGCUGUAUAUCUC [G52A A65G]	0.53
UAACAGGGGGCCACAGCAGAAGCGUUCACGUCGCAGCCCCUGUCAGAUUCGGGUGAAUCUGCGAAUUCCGCUGUAUAUCUC [U51G U69C]	0.62
UAACAGGGGGCCACAGCAGAAGCGUUCACGUCGCAGCCCCUGUCAGAUUCGGGUGAAUCUGCGAAUUCGGCUGUAUAUCUC [U51G U69G]	0.49
UAACAGGGGGCCACAGCAGAAGCGUUCACGUCGCAGCCCCUGUCAGAUUCUAGUGAAUCUGCGAAUUCUGCUGUAUUUCUC [G52A A77U]	0.98
UAACAGGGGGCCACAGCAGAAGCGUUCACGUCGCAGCCCCUGUCAGAUUCGGGUGAAUCUGCGAAUUCUGCUGUAUACCUC [U51G U78C]	0.97
UAACAGGGGGCCACAGCAGAAGCGUUCACGUCGCAGCCCCUGUCAGAUUCUAGCGAAUCUGCGAAUUCUGCUGUAUAUCUC [G52A U54C]	1.09
UAACAGGGGGCCACAGCAGAAGCGUUCACGUCGCAGCCCCUGUCAGAUUCUAGGGAAUCUGCGAAUUCUGCUGUAUAUCUC [G52A U54G]	1.16
UAACAGGGGGCCACAGCAGAAGCGUUCACGUCGCAGCCCCUGUCAGAUUCUAGAGAAUCUGCGAAUUCUGCUGUAUAUCUC [G52A U54A]	1.16
UAACAGGGGGCCACAGCAGAAGCGUUCACGUCGCAGCCCCUGUCAGAUUCUCGUGAAUCUGCGGAUUCUGCUGUAUAUCUC [G52C A64G]	1.04
UAACAGGGGGCCACAGCAGAAGCGUUCACGUCGCAGCCCCUGUCAGAUUCUCGUGAAUCUGCGAAUUCUUCUGUAUAUCUC [G52C G70U]	0.53
UAACAGGGGGCCACAGCAGAAGCGUUCACGUCGCAGCCCCUGUCAGAUUCUAGUGAAUCUGCGAAGUCUGCUGUAUAUCUC [G52A U66G]	0.76
UAACAGGGGGCCACAGCAGAAGCGUUCACGUCGCAGCCCCUGUCAGAUUCUAGUGAAUCUGCGAAAUCUGCUGUAUAUCUC [G52A U66A]	0.66
UAACAGGGGGCCACAGCAGAAGCGUUCACGUCGCAGCCCCUGUCAGAUUCGGGUGAAUCUGCGAACUCUGCUGUAUAUCUC [U51G U66C]	0.21
